The target in assay [1] is T1, rat calcitonin receptor (rat, UniProt P32214 25-516).
T1 construct: whole, on cells; Membranes prepared from transiently transfected BHK tk'ts 13 cells; also called rCTR; rat calcitonin (a) receptor
T1 sequence (looked up): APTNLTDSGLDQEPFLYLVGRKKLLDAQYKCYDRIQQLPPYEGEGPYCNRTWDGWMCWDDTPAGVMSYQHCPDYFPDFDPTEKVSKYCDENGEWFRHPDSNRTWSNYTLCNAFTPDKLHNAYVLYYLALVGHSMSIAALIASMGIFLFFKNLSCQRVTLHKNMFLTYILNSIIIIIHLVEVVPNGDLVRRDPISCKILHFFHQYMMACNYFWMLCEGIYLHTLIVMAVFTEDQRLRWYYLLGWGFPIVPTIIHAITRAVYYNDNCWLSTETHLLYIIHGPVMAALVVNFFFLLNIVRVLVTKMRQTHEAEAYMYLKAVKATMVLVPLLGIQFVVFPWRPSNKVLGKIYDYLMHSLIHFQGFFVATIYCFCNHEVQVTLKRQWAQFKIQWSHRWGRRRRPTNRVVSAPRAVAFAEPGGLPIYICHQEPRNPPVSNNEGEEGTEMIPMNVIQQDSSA
The assay can be described thus: ratio of IC50 on rat calcitonin receptor to IC50 on rat amylin receptor.

In assay [2] the target is T2, rat amylin receptor (rat calcitonin receptor + rat RAMP 3) (rat, UniProt P32214 25-516; Q9JJ73 23-147).
T2 construct: whole, on cells; Membranes prepared from transiently transfected BHK tk'ts 13 cells; also called rAmylin-R; rat amylin 3(a) receptor
T2 sequence (looked up) 1: T1 sequence (looked up)
T2 sequence (looked up) 2: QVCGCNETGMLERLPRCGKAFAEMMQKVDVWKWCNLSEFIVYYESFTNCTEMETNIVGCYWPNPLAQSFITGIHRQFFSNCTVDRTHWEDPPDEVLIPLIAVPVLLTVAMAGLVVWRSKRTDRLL
The assay can be described thus: SPA competition vs 125I-rat amylin, membranes (Assay VI).

The target of assay [3] is T3, human calcitonin receptor (human, UniProt P30988 25-474).
T3 construct: whole, on cells; Membranes from stably transfected BHK cells; also called hCTR; hCT
T3 sequence (looked up): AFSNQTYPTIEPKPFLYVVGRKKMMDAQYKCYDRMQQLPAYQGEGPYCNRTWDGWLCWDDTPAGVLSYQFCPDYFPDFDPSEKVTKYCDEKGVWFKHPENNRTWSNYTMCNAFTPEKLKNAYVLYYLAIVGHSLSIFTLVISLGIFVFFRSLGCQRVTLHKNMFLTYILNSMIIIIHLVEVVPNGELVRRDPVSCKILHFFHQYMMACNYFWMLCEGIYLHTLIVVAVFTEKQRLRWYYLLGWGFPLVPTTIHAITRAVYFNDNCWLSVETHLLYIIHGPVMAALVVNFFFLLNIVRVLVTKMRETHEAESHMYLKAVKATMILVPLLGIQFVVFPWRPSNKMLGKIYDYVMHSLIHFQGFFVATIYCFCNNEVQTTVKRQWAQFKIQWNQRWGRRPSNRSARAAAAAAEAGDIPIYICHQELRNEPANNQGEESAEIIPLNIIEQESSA
The assay is described as follows: ratio of IC50 on human calcitonin receptor to IC50 on human amylin receptor. The method in brief: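 IC₅₀ values were derived by one-site competition analysis of SPA counts. Cell membranes (35 ng/μL) with SPA beads were incubated with test compounds for 120 min at 25° C in Hepes buffer, pH 7.4, containing CaCl2, MgCl₂, OA and Tween20.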

The target in assay [4] is T1, rat calcitonin receptor. The assay is described as follows: SPA competition vs 125I-calcitonin, membranes (Assay VIII).

Numbered stars: 1 amine (or outer) side, 2 acyl side, 3 side chain; on linkers, the order of the positions; unused ones are H or OH. Bridge positions count the residues as written; N and C are the ends. Side chains are listed from the residue outwards. Ends that are not written are not given here. * marks the point of attachment. C20 diacid = O=C(O)CCCCCCCCCCCCCCCCCCC(=O)*; γGlu = O=C(O)[C@H](CCC(=O)[*:2])N[*:1]

B1: N^ε1-[(4S)-4-carboxy-4-(19-carboxynonadecanoylamino)butanoyl]-[Asp14,Arg17,Pro21,Pro27,Pro34,Arg35]-h-amylin (peptide)
peptide: K([γGlu-C20 diacid])CNTATCATQRLADFLRHSSPNFGAIPSSTNVGPRTY-NH2
modifications: disulfide 2-7; N-terminus assumed
SMILES: CC[C@H](C)[C@H](NC(=O)[C@H](C)NC(=O)CNC(=O)[C@H](Cc1ccccc1)NC(=O)[C@H](CC(N)=O)NC(=O)[C@@H]1CCCN1C(=O)[C@H](CO)NC(=O)[C@H](CO)NC(=O)[C@H](Cc1c[nH]cn1)NC(=O)[C@H](CCCNC(=N)N)NC(=O)[C@H](CC(C)C)NC(=O)[C@H](Cc1ccccc1)NC(=O)[C@H](CC(=O)O)NC(=O)[C@H](C)NC(=O)[C@H](CC(C)C)NC(=O)[C@H](CCCNC(=N)N)NC(=O)[C@H](CCC(N)=O)NC(=O)[C@@H](NC(=O)[C@H](C)NC(=O)[C@@H]1CSSC[C@H](NC(=O)[C@@H](N)CCCCNC(=O)CC[C@H](NC(=O)CCCCCCCCCCCCCCCCCCC(=O)O)C(=O)O)C(=O)N[C@@H](CC(N)=O)C(=O)N[C@@H]([C@@H](C)O)C(=O)N[C@@H](C)C(=O)N[C@@H]([C@@H](C)O)C(=O)N1)[C@@H](C)O)C(=O)N1CCC[C@H]1C(=O)N[C@@H](CO)C(=O)N[C@@H](CO)C(=O)N[C@H](C(=O)N[C@@H](CC(N)=O)C(=O)N[C@H](C(=O)NCC(=O)N1CCC[C@H]1C(=O)N[C@@H](CCCNC(=N)N)C(=O)N[C@H](C(=O)N[C@@H](Cc1ccc(O)cc1)C(N)=O)[C@@H](C)O)C(C)C)[C@@H](C)O
Consider B1, for which, in the assay with rat calcitonin receptor [1], the “Ratio rCT/rAmylin binding” value was found to be 116. The IC50 in assay [2] stood at 0.504 nM; with rat calcitonin receptor [4], 58.5 nM. Besides, the “Ratio hCT/hAmylin binding” value in assay [3] was 151.

B2: N^ε1-[(4S)-4-carboxy-4-(19-carboxynonadecanoylamino)butanoyl]-[Glu14,Arg17,Pro21,Pro27,Arg34,Glu35]-h-amylin (peptide)
peptide: K([γGlu-C20 diacid])CNTATCATQRLAEFLRHSSPNFGAIPSSTNVGRETY-NH2
modifications: disulfide 2-7; N-terminus assumed
SMILES: CC[C@H](C)[C@H](NC(=O)[C@H](C)NC(=O)CNC(=O)[C@H](Cc1ccccc1)NC(=O)[C@H](CC(N)=O)NC(=O)[C@@H]1CCCN1C(=O)[C@H](CO)NC(=O)[C@H](CO)NC(=O)[C@H](Cc1c[nH]cn1)NC(=O)[C@H](CCCNC(=N)N)NC(=O)[C@H](CC(C)C)NC(=O)[C@H](Cc1ccccc1)NC(=O)[C@H](CCC(=O)O)NC(=O)[C@H](C)NC(=O)[C@H](CC(C)C)NC(=O)[C@H](CCCNC(=N)N)NC(=O)[C@H](CCC(N)=O)NC(=O)[C@@H](NC(=O)[C@H](C)NC(=O)[C@@H]1CSSC[C@H](NC(=O)[C@@H](N)CCCCNC(=O)CC[C@H](NC(=O)CCCCCCCCCCCCCCCCCCC(=O)O)C(=O)O)C(=O)N[C@@H](CC(N)=O)C(=O)N[C@@H]([C@@H](C)O)C(=O)N[C@@H](C)C(=O)N[C@@H]([C@@H](C)O)C(=O)N1)[C@@H](C)O)C(=O)N1CCC[C@H]1C(=O)N[C@@H](CO)C(=O)N[C@@H](CO)C(=O)N[C@H](C(=O)N[C@@H](CC(N)=O)C(=O)N[C@H](C(=O)NCC(=O)N[C@@H](CCCNC(=N)N)C(=O)N[C@@H](CCC(=O)O)C(=O)N[C@H](C(=O)N[C@@H](Cc1ccc(O)cc1)C(N)=O)[C@@H](C)O)C(C)C)[C@@H](C)O
Turning to B2, the “Ratio rCT/rAmylin binding” value with rat calcitonin receptor [1] came to 81.1. Also, the IC50 in assay [2] amounted to 1.06 nM; in the assay with rat calcitonin receptor [4] it was 86.1 nM. Further, in assay [3], the “Ratio hCT/hAmylin binding” value was determined as 28.5.

B3: N^ε1-[(4S)-4-carboxy-4-(19-carboxynonadecanoylamino)butanoyl]-[Glu14,Arg17,Pro21,Pro27,His35]-h-amylin (peptide)
peptide: K([γGlu-C20 diacid])CNTATCATQRLAEFLRHSSPNFGAIPSSTNVGSHTY-NH2
modifications: disulfide 2-7; N-terminus assumed
SMILES: CC[C@H](C)[C@H](NC(=O)[C@H](C)NC(=O)CNC(=O)[C@H](Cc1ccccc1)NC(=O)[C@H](CC(N)=O)NC(=O)[C@@H]1CCCN1C(=O)[C@H](CO)NC(=O)[C@H](CO)NC(=O)[C@H](Cc1c[nH]cn1)NC(=O)[C@H](CCCNC(=N)N)NC(=O)[C@H](CC(C)C)NC(=O)[C@H](Cc1ccccc1)NC(=O)[C@H](CCC(=O)O)NC(=O)[C@H](C)NC(=O)[C@H](CC(C)C)NC(=O)[C@H](CCCNC(=N)N)NC(=O)[C@H](CCC(N)=O)NC(=O)[C@@H](NC(=O)[C@H](C)NC(=O)[C@@H]1CSSC[C@H](NC(=O)[C@@H](N)CCCCNC(=O)CC[C@H](NC(=O)CCCCCCCCCCCCCCCCCCC(=O)O)C(=O)O)C(=O)N[C@@H](CC(N)=O)C(=O)N[C@@H]([C@@H](C)O)C(=O)N[C@@H](C)C(=O)N[C@@H]([C@@H](C)O)C(=O)N1)[C@@H](C)O)C(=O)N1CCC[C@H]1C(=O)N[C@@H](CO)C(=O)N[C@@H](CO)C(=O)N[C@H](C(=O)N[C@@H](CC(N)=O)C(=O)N[C@H](C(=O)NCC(=O)N[C@@H](CO)C(=O)N[C@@H](Cc1c[nH]cn1)C(=O)N[C@H](C(=O)N[C@@H](Cc1ccc(O)cc1)C(N)=O)[C@@H](C)O)C(C)C)[C@@H](C)O
In the case of B3, the “Ratio rCT/rAmylin binding” value in the assay with rat calcitonin receptor [1] came out at 22.7. The IC50 in assay [2] is 1.16 nM; in the assay with rat calcitonin receptor [4], 26.3 nM. Moreover, the “Ratio hCT/hAmylin binding” value in assay [3] is 26.4.

B4: N^ε1-[(4S)-4-carboxy-4-(19-carboxynonadecanoylamino)butanoyl]-[Glu14,Arg17,Pro21,Pro27,His34,Glu35]-h-amylin (peptide)
peptide: K([γGlu-C20 diacid])CNTATCATQRLAEFLRHSSPNFGAIPSSTNVGHETY-NH2
modifications: disulfide 2-7; N-terminus assumed
SMILES: CC[C@H](C)[C@H](NC(=O)[C@H](C)NC(=O)CNC(=O)[C@H](Cc1ccccc1)NC(=O)[C@H](CC(N)=O)NC(=O)[C@@H]1CCCN1C(=O)[C@H](CO)NC(=O)[C@H](CO)NC(=O)[C@H](Cc1c[nH]cn1)NC(=O)[C@H](CCCNC(=N)N)NC(=O)[C@H](CC(C)C)NC(=O)[C@H](Cc1ccccc1)NC(=O)[C@H](CCC(=O)O)NC(=O)[C@H](C)NC(=O)[C@H](CC(C)C)NC(=O)[C@H](CCCNC(=N)N)NC(=O)[C@H](CCC(N)=O)NC(=O)[C@@H](NC(=O)[C@H](C)NC(=O)[C@@H]1CSSC[C@H](NC(=O)[C@@H](N)CCCCNC(=O)CC[C@H](NC(=O)CCCCCCCCCCCCCCCCCCC(=O)O)C(=O)O)C(=O)N[C@@H](CC(N)=O)C(=O)N[C@@H]([C@@H](C)O)C(=O)N[C@@H](C)C(=O)N[C@@H]([C@@H](C)O)C(=O)N1)[C@@H](C)O)C(=O)N1CCC[C@H]1C(=O)N[C@@H](CO)C(=O)N[C@@H](CO)C(=O)N[C@H](C(=O)N[C@@H](CC(N)=O)C(=O)N[C@H](C(=O)NCC(=O)N[C@@H](Cc1c[nH]cn1)C(=O)N[C@@H](CCC(=O)O)C(=O)N[C@H](C(=O)N[C@@H](Cc1ccc(O)cc1)C(N)=O)[C@@H](C)O)C(C)C)[C@@H](C)O
notes: also called compound 107
Consider B4, for which the “Ratio rCT/rAmylin binding” value in the assay with rat calcitonin receptor [1] is 34.6. The results for the IC50 (in assay [2]; in the assay with rat calcitonin receptor [4]) were 0.958 nM and 33.1 nM, respectively. In addition, the “Ratio hCT/hAmylin binding” value in assay [3] stood at 11.1.

B5: N^ε1-[(4S)-4-carboxy-4-(19-carboxynonadecanoylamino)butanoyl]-[Asp14,Arg17,Pro21,Pro27,Pro34,Glu35]-h-amylin (peptide)
peptide: K([γGlu-C20 diacid])CNTATCATQRLADFLRHSSPNFGAIPSSTNVGPETY-NH2
modifications: disulfide 2-7; N-terminus assumed
SMILES: CC[C@H](C)[C@H](NC(=O)[C@H](C)NC(=O)CNC(=O)[C@H](Cc1ccccc1)NC(=O)[C@H](CC(N)=O)NC(=O)[C@@H]1CCCN1C(=O)[C@H](CO)NC(=O)[C@H](CO)NC(=O)[C@H](Cc1c[nH]cn1)NC(=O)[C@H](CCCNC(=N)N)NC(=O)[C@H](CC(C)C)NC(=O)[C@H](Cc1ccccc1)NC(=O)[C@H](CC(=O)O)NC(=O)[C@H](C)NC(=O)[C@H](CC(C)C)NC(=O)[C@H](CCCNC(=N)N)NC(=O)[C@H](CCC(N)=O)NC(=O)[C@@H](NC(=O)[C@H](C)NC(=O)[C@@H]1CSSC[C@H](NC(=O)[C@@H](N)CCCCNC(=O)CC[C@H](NC(=O)CCCCCCCCCCCCCCCCCCC(=O)O)C(=O)O)C(=O)N[C@@H](CC(N)=O)C(=O)N[C@@H]([C@@H](C)O)C(=O)N[C@@H](C)C(=O)N[C@@H]([C@@H](C)O)C(=O)N1)[C@@H](C)O)C(=O)N1CCC[C@H]1C(=O)N[C@@H](CO)C(=O)N[C@@H](CO)C(=O)N[C@H](C(=O)N[C@@H](CC(N)=O)C(=O)N[C@H](C(=O)NCC(=O)N1CCC[C@H]1C(=O)N[C@@H](CCC(=O)O)C(=O)N[C@H](C(=O)N[C@@H](Cc1ccc(O)cc1)C(N)=O)[C@@H](C)O)C(C)C)[C@@H](C)O
On to B5, for which the “Ratio rCT/rAmylin binding” value with rat calcitonin receptor [1] is 62. Moreover, the figures for the IC50 (in assay [2]; in the assay with rat calcitonin receptor [4]) were 0.3 nM and 18.6 nM, respectively. Further, the “Ratio hCT/hAmylin binding” value in assay [3] worked out at 16.7.

(Values after patent US20140087995A1 (published 2014).)
